From the supplement of paper PMC12764529 come the findings set out here.

± gives the half width of the 95% confidence interval.

Series [1] can be described thus: folding stability dG unfold from trypsin proteolysis; higher = more stable. An outline of the steps:
(§1)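 Bayesian fitting of sequencing counts gave K50 for each design. Unfolding free energy followed by setting this against a sequence-predicted unfolded-state K50 and a shared folded-state K50, either per protease or with trypsin and chymotrypsin combined. The designs, under 80 residues and lacking cysteine, were digested in a PA-tagged cDNA display format at 11 threefold-diluted protease concentrations and without protease, and only those with AlphaFold2 dimer inter-PAE above 15 were kept.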

The nature of series [2]: folding stability dG unfold from chymotrypsin proteolysis; higher = more stable. The procedure, abridged:
as §1

Series [3] in a line: folding stability dG unfold (combined trypsin and chymotrypsin); higher = more stable. The procedure, abridged:
as §1

Regarding “SAGGSASVVLPNATVEELKEAVEKGAKEIVVVSPDPARAATIKAEIEKLHDTPVKVLTPEEAAALESAGGSA [r15_243_JUSTAS]”, the “folding stability dG unfold” value is -0.205 ± 0.037 kcal/mol in series [1], 1.32 ± 0.035 kcal/mol in series [2] and 0.907 ± 0.055 kcal/mol in series [3].
On the same counts, the results for “SAGGSATIEEIAQEIADNLPPGRKYRAKIYYDGEERTYEFRNPNGFKINITWKNGKIRSIDIEPRPSAGGSA [r15_175_TrROS]” are 1.63 ± 0.046 kcal/mol, 2.01 ± 0.16 kcal/mol and 1.94 ± 0.17 kcal/mol.
On the same counts, the results for “SAGGSATKELVLEIAEEIAPRFQKEGWPIKRVTVKVVRTPDGQVTIPVRIRFPDGKPIMQWNITIPSAGGSA [r15_232_TrROS]” are 1.03 ± 0.055 kcal/mol, 0.00828 ± 0.36 kcal/mol and 0.779 ± 0.17 kcal/mol.
On the same counts, the results for “SAGGSATKVIYGMSVEEIRAAIKAGAKKIIIVADTEEQKKAAAEELEKEYNIKIEVKKIKPKKKKKSAGGSA [r15_243_TrROS_Hall]” are 0.83 ± 0.065 kcal/mol, 2.22 ± 0.039 kcal/mol and 1.89 ± 0.17 kcal/mol.
With “SAGGSATPEEIAKKFFENHPELEPVEVKLEKFKIPGLKIWVVKVEITLKFKDNSKKKIPVVAVFPVSAGGSA [r15_266_TrMRF]”, the figures for the “folding stability dG unfold” value in series [1], in series [2] and in series [3] were 2.02 ± 0.066 kcal/mol, 3.01 ± 0.039 kcal/mol and 2.72 ± 0.074 kcal/mol, respectively.
On the same counts, the results for “SAGGSATVTVTLVVRDPATGELTTVTATVTLEAAPAPVSVSLSLSLSRDPNGNLSLSLSVSVTVEGSAGGSA [r2_326_TrROS_Hall]” are 4.02 ± 0.094 kcal/mol, 5.93 ± 0.13 kcal/mol and greater than 6 kcal/mol.
With “SAGGSAVEFTEPGAELLSEEKLPDGTVVKRVLLPDGSVLLLLPDNSIKTRSLSNPNTSLSEWDPELSAGGSA [r15_692_JUSTAS]”, the entries for the “folding stability dG unfold” value in series [1], in series [2] and in series [3] were 0.613 ± 0.17 kcal/mol, 0.332 ± 0.32 kcal/mol and 0.491 ± 0.26 kcal/mol, respectively.
“SAGGSAVRIKVWPPNGKEQWIPIPSSMTPSTVQEMAENLADDWQEQNGNKNVKVEVDPDNGWIRIRSAGGSA [r15_33_TrROS]”: the “folding stability dG unfold” value is -1.02 ± 0.3 kcal/mol in series [1], 0.197 ± 0.084 kcal/mol in series [2] and -0.0158 ± 0.066 kcal/mol in series [3].
For “SAGGSAVTITVDDFEDIEDAEITLTRPDGRPVVARVRVEKGEGAPRVTVLWREPGSGRYRVETFPLSAGGSA [r15_1006_TrMRF]” the same measures were 0.925 ± 0.074 kcal/mol, 1.49 ± 0.1 kcal/mol and 1.28 ± 0.07 kcal/mol.
On the same counts, the results for “SAGGSAWIRINSPEMVEAFAKELKDEGWKLKDVDVQRDPNNGNVWFEIPIEHPNNGKKRELEIWFRSAGGSA [r15_123_TrROS]” are 0.368 ± 0.077 kcal/mol, -0.0873 ± 0.2 kcal/mol and 0.141 ± 0.11 kcal/mol.
For “SAGGSAWIWITYQFPPGGTLEQAKEQIVNYLQRLFGWKIEIPDIEVEREGNNWTVTFPIKIEPLPGSAGGSA [r15_105_TrROS]”, the “folding stability dG unfold” value worked out at 3.7 ± 0.16 kcal/mol in series [1], 4.4 ± 0.098 kcal/mol in series [2] and 4.18 ± 0.24 kcal/mol in series [3].
For “SAGGSDKEEKEKEIDIRIVQVPWDDARELAEESDDPVIFMLPDGHIHIFKGDGKVEPFPIPDPEEFSAGGSA [r2_34_TrROS]” the same measures were -0.288 ± 0.071 kcal/mol, 0.199 ± 0.15 kcal/mol and 0.0224 ± 0.12 kcal/mol.
On the same counts, the results for “SAGGSDVEIEVFENAIIITIPLDLDNGKGETVEVRIIAPFTPDGRPIFRIEVINPDSDEVVTFTFPSAGGSA [r2_484_TrMRF]” are 2.66 ± 0.081 kcal/mol, 2.766 ± 0.017 kcal/mol and 2.71 ± 0.068 kcal/mol.
For “SAGGSDYYIRVRIRIYKPTPEDMQEGKPIPEVEIWFPFDSVEEIKEFLENLPPNIKVDVDWFPPEDSAGGSA [r2_25_TrROS]” the same measures were 3.35 ± 0.073 kcal/mol, 4.21 ± 0.11 kcal/mol and 3.89 ± 0.14 kcal/mol.
“SAGGSEAIKEALELAKENPGKTVEVEIKNEDGSIYKIKIEVKEGKVVKVEVEKVKKEEVLSEEEKKSAGGSA [r2_263_TrROS_Hall]”: the “folding stability dG unfold” value turned out to be 1.01 ± 0.1 kcal/mol in series [1], 2.49 ± 0.043 kcal/mol in series [2] and 2.12 ± 0.1 kcal/mol in series [3].
On the same counts, the results for “SAGGSEALTKNLPGVKEIKIEVEPTEVALSPELAKLLPNLPGVKFTVPSVKIDIKIEYPGTPDGTLSAGGSA [r2_404_TrMRF]” are 0.133 ± 0.088 kcal/mol, -0.659 ± 0.37 kcal/mol and -0.053 ± 0.15 kcal/mol.
For “SAGGSEDRYLVHVLVRFPDELRELYLEARSPEEVERSVRRAIEELYPERLEDVEVVVFARPVSEPLSAGGSA [r2_111_TrMRF]” the same measures were 2.38 ± 0.038 kcal/mol, 1.91 ± 0.081 kcal/mol and 2.14 ± 0.061 kcal/mol.
For “SAGGSEEEIKKKIEEIAKKRGTKIKSITIKKLPDGSLLATVTLEDNPNTTIEFKVEKNKVEITKINKSAGGS [r8_432_JUSTAS]” the same measures were 1.73 ± 0.068 kcal/mol, 2.93 ± 0.051 kcal/mol and 2.61 ± 0.066 kcal/mol.
For the sequence “SAGGSEEKVFEFEVVEVTSVEVKEDGTVTIEVTVRLENGLLLTVRVTFDLATNEVTIEVELRPLPESAGGSA [r2_321_TrROS_Hall]”, the entries for the “folding stability dG unfold” value in series [1], in series [2] and in series [3] were 3.38 ± 0.35 kcal/mol, 4.49 ± 0.19 kcal/mol and 4.41 ± 0.2 kcal/mol, respectively.
For “SAGGSEEVEEEPPVVVTVRLTIELTLADGSKVRVEVELVRTADGRLLLKIRVVNEDTGEVYEFTFPSAGGSA [r2_484_TrROS_Hall]” the same measures were 3.31 ± 0.24 kcal/mol, 4.86 ± 0.23 kcal/mol and 4.6 ± 0.19 kcal/mol.
For “SAGGSEFIPVVAEFPEDVTPEDVARAVRELERAGFVVERVEVERFPDPDGRERYRVRVVLRRPEELSAGGSA [r2_442_TrMRF]” the same measures were 3.53 ± 0.081 kcal/mol, 3.841 ± 0.0097 kcal/mol and 3.732 ± 0.035 kcal/mol.
On the same counts, the results for “SAGGSEKIEVEVERREDGYLVLRVRLELFDENGELVEEIEIEVVLPREELEKMSLEELLKRLLEELSAGGSA [r2_421_TrROS_Hall]” are 3.99 ± 0.17 kcal/mol, 5.25 ± 0.38 kcal/mol and 5.08 ± 0.67 kcal/mol.
“SAGGSEKVKIEIPFRHPEDGEPIFPVRIEYEKPPNGDYKLDIEIDNFPPGMKPSPAAKDAIEEFIKSAGGSA [r2_7_TrROS]”: the “folding stability dG unfold” value in series [1] was found to be 0.588 ± 0.07 kcal/mol; in series [2], 1.29 ± 0.052 kcal/mol; in series [3], 0.956 ± 0.19 kcal/mol.
As for “SAGGSEKVTIELEFRNPETGELIATVKIELERLPNGEIKAKIEFTNLPEGVELSEEMKKLLEELLKSAGGSA [r2_7_TrROS_Hall]”, the figures for the “folding stability dG unfold” value in series [1], in series [2] and in series [3] were 2.5 ± 0.31 kcal/mol, 2.93 ± 0.19 kcal/mol and 2.77 ± 0.34 kcal/mol, respectively.
On the same counts, the results for “SAGGSELKPGDLVEVKVTVEFDEETGKATVEVEFNGKKLTVEVELEENQPPTVEVTLLVRIDKIEPSAGGSA [r2_113_TrROS_Hall]” are 2.36 ± 0.17 kcal/mol, 2.48 ± 0.1 kcal/mol and 2.46 ± 0.15 kcal/mol.
On the same counts, the results for “SAGGSEPPKIKKIKDINVKHERHNDRPYWEVKIRIKLKNGNTAEIDIEMPGMPPEEAREQIKDILKSAGGSA [r2_26_TrROS]” are 0.391 ± 0.15 kcal/mol, 0.872 ± 0.089 kcal/mol and 0.938 ± 0.36 kcal/mol.
